The values that follow come from article PMC8682777, “Mechanisms of distinctive mismatch tolerance between Rad51 and Dmc1 in homologous recombination” (Nucleic Acids Research, 2021).

Data set [1] concerns the molecule itself. The data set is described as follows: cryo-EM structure; helical filaments of 2 uM hRAD51 on 150-mer ssDNA with 2 uM RS-1 (presynaptic, wt only) or after strand exchange with dsDNA and 0.2 uM Hop2-Mnd1 without RS-1 (postsynaptic, wt and 273-PG-274); 25 mM HEPES pH 7.5, 25 mM KCl, 4 mM MgCl2, 4 mM AMP-PNP, 37°C.
In data set [2] the target is T1, hRAD51 wt (Homo sapiens (human), UniProt Q06609 1-339). Put plainly: cryo-EM; 4 mM AMP-PNP, 4 mM Mg2+, RS-1; presynaptic complex; hRAD51: 25 mM HEPES pH 7.5, 25 mM KCl, 4 mM MgCl2, 4 mM AMP-PNP, 37 C; ScDmc1: 35 mM Tris-HCl pH 7.5, 96 mM KCl, 2 mM ATP, 5 mM CaCl2, 1 mM DTT, 37 C. Strand-exchange/smFRET activity assays and MM-GBSA energies not listed. Conditions: protein: recombinant; chain copies: 10.

Data set [3] concerns the target T2, ScDmc1 wt (UniProt P25453 1-334).
T2 sequence: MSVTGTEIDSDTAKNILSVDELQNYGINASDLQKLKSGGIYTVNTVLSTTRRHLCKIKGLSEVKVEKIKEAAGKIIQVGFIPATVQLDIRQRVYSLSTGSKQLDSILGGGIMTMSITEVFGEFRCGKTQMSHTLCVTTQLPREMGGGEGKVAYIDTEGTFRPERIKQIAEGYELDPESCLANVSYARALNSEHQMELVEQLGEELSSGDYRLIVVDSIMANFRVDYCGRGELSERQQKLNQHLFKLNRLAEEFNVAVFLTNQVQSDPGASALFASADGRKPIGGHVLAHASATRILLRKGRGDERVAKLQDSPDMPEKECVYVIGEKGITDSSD
Put plainly: cryo-EM; 2 mM ATP, 5 mM Ca2+; presynaptic complex; hRAD51: 25 mM HEPES pH 7.5, 25 mM KCl, 4 mM MgCl2, 4 mM AMP-PNP, 37 C; ScDmc1: 35 mM Tris-HCl pH 7.5, 96 mM KCl, 2 mM ATP, 5 mM CaCl2, 1 mM DTT, 37 C. Strand-exchange/smFRET activity assays and MM-GBSA energies not listed. As to conditions: protein: recombinant; tags: His6.

Data set [4] concerns the target T1, hRAD51 wt. The data set is described as follows: cryo-EM; AMP-PNP, Mg2+, Hop2-Mnd1 added to trigger exchange, no RS-1; postsynaptic complex; hRAD51: 25 mM HEPES pH 7.5, 25 mM KCl, 4 mM MgCl2, 4 mM AMP-PNP, 37 C; ScDmc1: 35 mM Tris-HCl pH 7.5, 96 mM KCl, 2 mM ATP, 5 mM CaCl2, 1 mM DTT, 37 C. Strand-exchange/smFRET activity assays and MM-GBSA energies not listed. Conditions: protein: recombinant; chain copies: 16; blunt.

The target in data set [5] is T2, ScDmc1 wt. Put plainly: cryo-EM; 2 mM ATP, 5 mM Ca2+, Hop2-Mnd1 added; postsynaptic complex; hRAD51: 25 mM HEPES pH 7.5, 25 mM KCl, 4 mM MgCl2, 4 mM AMP-PNP, 37 C; ScDmc1: 35 mM Tris-HCl pH 7.5, 96 mM KCl, 2 mM ATP, 5 mM CaCl2, 1 mM DTT, 37 C. Strand-exchange/smFRET activity assays and MM-GBSA energies not listed. Conditions: protein: recombinant; tags: His6; blunt.

Another data set concerns the target hRAD51 273-PG-274 (Homo sapiens (human), UniProt Q06609 1-339, V273P;D274G). Put plainly: cryo-EM; AMP-PNP, Mg2+, Hop2-Mnd1 added, no RS-1; postsynaptic complex; hRAD51: 25 mM HEPES pH 7.5, 25 mM KCl, 4 mM MgCl2, 4 mM AMP-PNP, 37 C; ScDmc1: 35 mM Tris-HCl pH 7.5, 96 mM KCl, 2 mM ATP, 5 mM CaCl2, 1 mM DTT, 37 C. Strand-exchange/smFRET activity assays and MM-GBSA energies not listed. As to conditions: protein: recombinant; chain copies: 16; blunt.

Data set [6] concerns the molecule itself. The data set is described as follows: cryo-EM structure; helical filaments of 4 uM ScDmc1 on 150-mer ssDNA (presynaptic) or after strand exchange with 150-bp dsDNA and 0.4 uM Hop2-Mnd1 (postsynaptic); 35 mM Tris-HCl pH 7.5, 96 mM KCl, 2 mM ATP, 5 mM CaCl2, 1 mM DTT, 37°C.

B1: human RAD51 mutant 273-PG-274 (natural protein)
chain: MAMQMQLEANADTSVEEESFGPQPISRLEQCGINANDVKKLEEAGFHTVEAVAYAPKKELINIKGISEAKADKILAEAAKLVPMGFTTATEFHQRRSEIIQITTGSKELDKLLQGGIETGSITEMFGEFRTGKTQICHTLAVTCQLPIDRGGGEGKAMYIDTEGTFRPERLLAVAERYGLSGSDVLDNVAYARAFNTDHQTQLLYQASAMMVESRYALLIVDSATALYRTDYSGRGELSARQMHLARFLRMLLRLADEFGVAVVITNQVVAQPGGAAMFAADPKKPIGGNIIAHASTTRLYLRKGRGETRICKIYDSPCLPEAEAMFAINADGVGDAKD
notes: RAD51 recombinase, human, with V273 and D274 of Loop2 changed to P and G (the residues of hDMC1); made from the hRAD51 wt construct by point mutation; Stood as a helical filament on dsDNA (postsynaptic complex, without RS-1); Only an EM map is deposited (EMD-31155), no PDB model; also called PG mutant; source: E. coli BLR(DE3) plysS (RecA-deficient), purified as hRAD51 wt
As to B1, in data set [1], the binding result was “binds”.

B2: 150-mer ssDNA oligo 4 (ssDNA)
DNA: TAAATAAGATAAGGATAATACAAAATAAGTAAATGAATAAACAGAGAAAATAAAGTAAAGGATATAAAAAATGAACATAAAGAATAAGTAAATGAATAAAACATAATAGGAATAAATATAGGAAATGAAATAAAAGAGACATAAATAAGA
Take B2: the binding result in the data set with hRAD51 wt [2] and with ScDmc1 wt [3] was “binds” throughout.

B3: 150-bp homologous dsDNA oligo 4/oligo 5 (postsynaptic) (dsDNA)
DNA 1: TAAATAAGATAAGGATAATACAAAATAAGTAAATGAATAAACAGAGAAAATAAAGTAAAGGATATAAAAAATGAACATAAAGAATAAGTAAATGAATAAAACATAATAGGAATAAATATAGGAAATGAAATAAAAGAGACATAAATAAGA
DNA 2: TCTTATTTATGTCTCTTTTATTTCATTTCCTATATTTATTCCTATTATGTTTTATTCATTTACTTATTCTTTATGTTCATTTTTTATATCCTTTACTTTATTTTCTCTGTTTATTCATTTACTTATTTTGTATTATCCTTATCTTATTTA
For B3, the binding result with hRAD51 wt [4], with ScDmc1 wt [5] and in the data set with hRAD51 273-PG-274 was “binds” throughout.

B4: yeast Dmc1 wild type (natural protein)
chain: MSVTGTEIDSDTAKNILSVDELQNYGINASDLQKLKSGGIYTVNTVLSTTRRHLCKIKGLSEVKVEKIKEAAGKIIQVGFIPATVQLDIRQRVYSLSTGSKQLDSILGGGIMTMSITEVFGEFRCGKTQMSHTLCVTTQLPREMGGGEGKVAYIDTEGTFRPERIKQIAEGYELDPESCLANVSYARALNSEHQMELVEQLGEELSSGDYRLIVVDSIMANFRVDYCGRGELSERQQKLNQHLFKLNRLAEEFNVAVFLTNQVQSDPGASALFASADGRKPIGGHVLAHASATRILLRKGRGDERVAKLQDSPDMPEKECVYVIGEKGITDSSD
notes: Dmc1 meiotic recombinase, yeast (ScDmc1); wt construct pNRB150, a gift from Dr Zhi Qi; Stood as a helical filament on ssDNA (presynaptic) or dsDNA (postsynaptic) with ATP-Ca2+; The stored protein is named His6-ScDmc1 and no cleavage of the tag is described; also called ScDmc1; ScDmc1 wt; source: E. coli BLR(DE3) plysS (RecA-deficient), purified (Talon beads, Heparin)
As to B4, in data set [6], the binding result is given as “binds”.
